# Measurements from the Human Domainome abundance scans (Beltran et al. 2025).
# ± gives the uncertainty stated by the source.
# B1: Gamma-crystallin C, residues 4 to 79; numbered along this chain, P07315 (parent)
# chain: ITFYEDRAFQGRSYETTTDCPNLQPYFSRCNSIRVESGCWMLYERPNYQGQQYLLRRGEYPDYQQWMGLSDSIRSC
# Variants of: B1
# Experiment: abundance fitness (aPCA) (normalised: wild type 0, dead -1); higher = more abundant; growth selection in yeast, the domain comes from the species named
# Details: Homo sapiens
row,Variant,abundance fitness
1,W66P,0.005 ± 0.1
2,W66N,0.091 ± 0.15
3,W66K,-0.023 ± 0.095
4,W66C,-0.168 ± 0.13
5,W66D,-0.12 ± 0.12
6,W66I,-0.006 ± 0.11
7,W66A,0.039 ± 0.078
8,W66F,-0.009 ± 0.11
9,W66E,0.068 ± 0.098
10,W66L,-0.082 ± 0.074
11,W66H,-0.01 ± 0.18
12,W66G,0.059 ± 0.046
13,W66Y,0.069 ± 0.12
14,W66Q,0.046 ± 0.17
15,W66T,0.021 ± 0.083
16,W66M,-0.093 ± 0.14
17,W66V,0.018 ± 0.077
18,Q64W,-0.021 ± 0.07
19,Q64K,-0.042 ± 0.12
20,Q64N,0.044 ± 0.082
21,Q64L,-0.081 ± 0.06
22,Q64V,-0.022 ± 0.062
23,Q64I,-0.039 ± 0.12
24,Q64S,-0.188 ± 0.082

row,Variant,abundance fitness
1,Q64Y,-0.182 ± 0.14
2,Q64M,-0.101 ± 0.081
3,Q64P,-0.013 ± 0.085
4,Q64T,-0.004 ± 0.092
5,Q65A,0.006 ± 0.068
6,Q65I,-0.133 ± 0.15
7,Q65H,-0.065 ± 0.089
8,Q65S,-0.042 ± 0.064
9,Q65T,-0.089 ± 0.057
10,Q65R,-0.036 ± 0.057
11,Q65V,-0.041 ± 0.09
12,Q65C,0 ± 0.11
13,Q65E,0.052 ± 0.073
14,Q65M,0.015 ± 0.24
15,Q65P,0.027 ± 0.1
16,Q65K,-0.175 ± 0.22
17,Q65L,-0.088 ± 0.064
18,Q65F,-0.253 ± 0.13
19,Q65W,-0.119 ± 0.062
20,Q65N,0.014 ± 0.14
21,Q65D,-0.019 ± 0.085
22,Q65Y,0.029 ± 0.13
23,D71M,-0.133 ± 0.075
24,D71N,-0.007 ± 0.12

row,Variant,abundance fitness
1,D71Y,-0.027 ± 0.081
2,D71F,-0.132 ± 0.16
3,D71W,-0.02 ± 0.14
4,D71I,-0.106 ± 0.1
5,D71V,-0.004 ± 0.059
6,D71E,0.027 ± 0.086
7,D71T,-0.059 ± 0.12
8,D71P,-0.135 ± 0.071
9,D71Q,-0.121 ± 0.14
10,D71S,-0.056 ± 0.055
11,D71K,0.094 ± 0.11
12,D71H,-0.092 ± 0.1
13,D71C,-0.017 ± 0.11
14,D71R,-0.011 ± 0.066
15,D71L,0.021 ± 0.068
16,S70K,-0.114 ± 0.17
17,S70Q,-0.077 ± 0.15
18,S70C,0.101 ± 0.16
19,S70Y,0.047 ± 0.096
20,S70R,-0.064 ± 0.067
21,S70T,-0.072 ± 0.075
22,S70V,0.075 ± 0.048
23,S70W,0.048 ± 0.068
24,S70L,-0.047 ± 0.049

row,Variant,abundance fitness
1,S70P,0.082 ± 0.084
2,S70F,-0.053 ± 0.079
3,S70H,-0.181 ± 0.15
4,S70D,-0.074 ± 0.12
5,S70A,0.02 ± 0.05
6,S70I,0.09 ± 0.11
7,S70G,-0.007 ± 0.055
8,S70M,-0.132 ± 0.097
9,S70N,-0.021 ± 0.11
10,G68A,0.003 ± 0.073
11,G68N,-0.053 ± 0.14
12,G68V,0.007 ± 0.065
13,G68L,-0.027 ± 0.048
14,G68K,0.028 ± 0.088
15,G68P,-0.02 ± 0.069
16,G68Y,0.097 ± 0.089
17,G68S,0.014 ± 0.052
18,G68W,0.003 ± 0.08
19,G68Q,-0.018 ± 0.083
20,G68T,0.068 ± 0.076
21,G68D,-0.042 ± 0.13
22,G68C,0.117 ± 0.083
23,G68R,0.079 ± 0.043
24,G68E,-0.062 ± 0.12

row,Variant,abundance fitness
1,S72I,0.007 ± 0.17
2,S72G,0.022 ± 0.054
3,S72R,0.01 ± 0.07
4,S72C,-0.082 ± 0.13
5,S72D,-0.21 ± 0.3
6,S72K,0.058 ± 0.13
7,S72P,-0.025 ± 0.14
8,S72Y,0.01 ± 0.11
9,S72F,0.119 ± 0.084
10,S72V,-0.012 ± 0.077
11,S72L,-0.052 ± 0.072
12,S72M,0.019 ± 0.11
13,S72H,-0.172 ± 0.17
14,S72A,-0.136 ± 0.081
15,S72T,-0.145 ± 0.088
16,M67R,-0.005 ± 0.072
17,M67D,-0.106 ± 0.15
18,M67V,0.008 ± 0.073
19,M67Q,-0.042 ± 0.15
20,M67L,-0.011 ± 0.053
21,M67W,0.044 ± 0.087
22,M67K,-0.043 ± 0.15
23,M67E,-0.131 ± 0.081
24,M67Y,-0.067 ± 0.096

row,Variant,abundance fitness
1,M67T,-0.018 ± 0.077
2,M67A,-0.03 ± 0.057
3,M67N,-0.065 ± 0.17
4,M67C,-0.173 ± 0.12
5,M67S,-0.057 ± 0.11
6,M67G,-0.113 ± 0.06
7,M67P,-0.057 ± 0.069
8,M67F,-0.091 ± 0.093
9,M67H,-0.01 ± 0.25
10,L69W,0.098 ± 0.081
11,L69S,-0.153 ± 0.076
12,L69H,-0.045 ± 0.099
13,L69V,0.02 ± 0.058
14,L69Q,0.08 ± 0.12
15,L69M,-0.163 ± 0.1
16,L69K,-0.104 ± 0.091
17,L69Y,-0.001 ± 0.18
18,L69R,-0.021 ± 0.048
19,L69T,0.047 ± 0.085
20,L69C,0.07 ± 0.12
21,L69P,-0.07 ± 0.12
22,L69E,0.017 ± 0.075
23,L69N,-0.045 ± 0.18
24,L69I,-0.23 ± 0.26

row,Variant,abundance fitness
1,L69F,0.147 ± 0.12
2,L69G,-0.028 ± 0.041
3,I73D,-0.861 ± 0.23
4,I73K,-0.801 ± 0.25
5,I73S,-0.39 ± 0.084
6,I73P,0.071 ± 0.081
7,I73L,0.025 ± 0.077
8,I73H,-0.693 ± 0.29
9,I73T,0.053 ± 0.1
10,I73C,0.047 ± 0.091
11,I73Y,-0.207 ± 0.3
12,I73V,0.085 ± 0.089
13,I73A,0.055 ± 0.053
14,I73R,-0.854 ± 0.1
15,I73M,0.106 ± 0.094
16,I73W,0.124 ± 0.12
17,I73E,-0.655 ± 0.2
18,I73F,-0.083 ± 0.12
19,I73Q,-0.798 ± 0.26
20,R74C,0.037 ± 0.088
21,R74D,0.104 ± 0.15
22,R74A,0.039 ± 0.05
23,R74E,-0.021 ± 0.066
